Source: patent US12440565

Molecular target: CD40 on the surface of mature dendritic cells (mDC) (human) (UniProt P25942)
Test: cell-based or functional assay

CD40 on the surface of mature dendritic cells (mDC) (human), sequence (P25942 21-277): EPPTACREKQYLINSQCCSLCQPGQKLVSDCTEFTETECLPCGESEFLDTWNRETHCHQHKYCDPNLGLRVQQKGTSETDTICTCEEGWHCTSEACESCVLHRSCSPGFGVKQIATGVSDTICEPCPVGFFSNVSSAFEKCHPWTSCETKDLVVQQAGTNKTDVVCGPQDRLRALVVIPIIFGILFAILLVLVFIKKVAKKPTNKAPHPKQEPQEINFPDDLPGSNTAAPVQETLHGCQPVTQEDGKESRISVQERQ

CD40L recombinant protein (from UniProt P29965 113-261) (ligand)
CD83+ (%) of mDC, agonist at 2 µg/mL (control group 81.00): 88.2%
IL-12p70 (pg/mL), agonist at 2 µg/mL (control group 50.0): 874 pg/mL
